From patent US20170088617A1 (Boehringer Ingelheim, published 2017)

Columns and labels:
[1] = target: T1, cynomolgus CD33 on the recombinant HEK293-cynomolgusCD33 cell line (cynomolgus, UniProt A0A7N9ICR5 17-359); assay: FACS Scatchard analysis on HEK293-cynomolgusCD33 cells
T1 construct: whole, on cells
Experimental: (§1) Fourteen CD33 binding agents (fully human monoclonal antibodies as listed in table 1 as No. 1-14, respectively) to human and cynomolgus CD33 were determined by FACS Scatchard analysis as described in Brockhoff et al., (Cytometry. 1994 Sep. 1; 17(1):75-83) on CD33 expressing cells (AML-derived HL60 cell line, recombinant HEK293-cynomolgusCD33 cell line). Briefly, dilutions of a CD33 binding agent were prepared in a 96 well plate starting with 100-400 nM in the first well (80 pil), followed by 11 dilution steps (1:2, 40+40 μl). 50 μl of CD33 binding agent dilutions are added to FACS tubes, 150 μl cells (0.8×10⁶/ml=1.2×10⁵ cells/tube) are added to each FACS tube. Cells were gently mixed and incubated for 1 h on ice. Thereafter 50 μl FITC conjugated secondary antibody (concentration 15 μg/ml; mouse mAb anti-human IgG) was added, mixed, and incubated for 30 min. on ice. 4 ml PBS ph7.2 containing 0.02% […] were added thereafter, cells were pelleted and resuspended in 300 μl PBS pH 7.2 and subjected to FACS analysis using a BD FACS Canto. All experimental steps were performed on wet ice, all CD33 binding agent dilutions were made in PBS/0.5% BSA+0.02% acid. FACS calibration was performed using Quantum FITC MESF (Premix) Beads (Bangs Laboratories). All samples were measured using the same FACS parameters. […] A regression line was drawn through the resulting data points, the slope of this line corresponds to the negative value of the association constant.

[2] = target: T2, human CD33 on the AML-derived HL60 cell line (human, UniProt P20138 18-364); assay: FACS Scatchard analysis on HL60 cells
T2 construct: whole, on cells; also called CD33 expressing HL60 cell line
T2 sequence (P20138 18-364): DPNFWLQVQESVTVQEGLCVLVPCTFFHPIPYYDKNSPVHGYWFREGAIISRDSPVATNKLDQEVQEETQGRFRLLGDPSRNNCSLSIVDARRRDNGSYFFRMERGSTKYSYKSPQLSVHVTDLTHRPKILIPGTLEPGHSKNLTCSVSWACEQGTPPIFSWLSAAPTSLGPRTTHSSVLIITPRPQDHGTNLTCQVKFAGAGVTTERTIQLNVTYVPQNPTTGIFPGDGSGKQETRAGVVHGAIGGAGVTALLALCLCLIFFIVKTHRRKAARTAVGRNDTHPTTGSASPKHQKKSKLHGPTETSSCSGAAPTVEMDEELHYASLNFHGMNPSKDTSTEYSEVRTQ
Experimental: as §1

Row | Binder | Kd [1] | Kd [2]
1 | 280-03-08 (antibody, human IgG1, kappa, V domains shown, Fully human monoclonal antibody; also called No 1; Clone ID# 280-03-08) VH: QVQLVQSGAEVKKPGSSVKVSCKASGGTFSDYAISWVRQAPGQGLEWMGRIIPILGVANYAQKFQGRVTITADKSTRTAYMELSSLRSEDTAVYYCARNWADAFDIWGQGTMVTVSS VL: DIQLTQSPSSLSASVGDRVTITCRASQGISSVLAWYQQKPGKAPKLLIYDASSLESGVPSRFSGSGSGTDFTLTISSLQPEDFATYYCQQFNSSITFGQGTKLEIKR | 30 pM | 300 pM
2 | 283-07-03 (antibody, human IgG1, kappa, V domains shown, Fully human monoclonal antibody; also called No 12; Clone ID# 283-07-03) VH: QVELVQSGAEVKKPGSSVKVSCKASGGTFSSYAISWVRQAPGQGLEWMGRIIPILGMANYAQKFQGRVTITADKSTYTAYMELSSLRSEDTAVYYCAREGGVDWYFDLWGRGTLVTVSS VL: DIQLTQSPSSLSASVGDRVTITCRASQGISSALAWYQQKPGKAPKFMIYDASSLESGVPSRFSGSGSGTDFTLTISSLQPEDFATYYCQQFNSSITFGQGTKLEIKR | 2100 pM | 300 pM
3 | 280-50-01(mut) (antibody, human IgG1, kappa, V domains shown, Fully human monoclonal antibody; also called No 8) VH: QVQLVQSGAEVKKPGSSVKVACKASGDTFSSYAISWVRQAPGQGLEWMGRVIPIIGIASYAQNFQGRVTITADRSTSTAYMALSSLRSEDTAVYYCARNWADAFDIWGQGTMVTVSS VL: DIQLTQSPSSLSASVGDRVTITCRASQGISSVLAWYQQKPGKAPKLLIYAASSLESGVPSRFSGSGSGTDFTLTISSLQPEDFATYYCQQFDSSITFGQGTKVEIKR | 1700 pM | 400 pM
4 | 280-61-07 (antibody, human IgG1, kappa, V domains shown, Fully human monoclonal antibody; also called No 9; Clone ID# 280-61-07) VH: QVQLVQSGAEVKKPGSSVKVACKASGDTFSSYAISWVRQAPGQGLEWMGRVIPIIGIASYAQNFEGRVTITADRSTSTAYMALSSLRSEDTAVYYCARNWADAFDIWGQGTMVTVSS VL: DIQLTQSPSSLSASVGDRVTITCRASQGISSVLAWYQQKPGKAPKLLIYAASSLESGVPSRFSGSGSGTDFTLTISSLQPEDFATYYCQQFNSSITFGQGTKLEIKR | 400 pM | 300 pM
5 | 280-50-01 (antibody, human IgG1, kappa, V domains shown, Fully human monoclonal antibody; also called No 7; Clone ID# 280-50-01) VH: QVQLVQSGAEVKKPGSSVKVACKASGDTFSSYAISWVRQAPGQGLEWMGRVIPIIGIASYAQNFQGRVTITADRSTSTAYMALSSLRSEDTAVYYCARNWADAFDIWGQGTMVTVSS VL: DIQLTQSPSSLSASVGDRVTITCRASQGISSVLAWYQQKPGKAPKLLIYAASSLESGVPSRFSGSGSGTDFTLTISSLQPEDFATYYCQQFNSSITFGQGTKVEIKR | 500 pM | 300 pM
6 | 280-34-02 (antibody, human IgG1, kappa, V domains shown, Fully human monoclonal antibody; also called No 6; Clone ID# 280-34-02) VH: QVELVQSGAEVQKPGSSVKVSCKASGDTFSSYAISWVRQAPGQGLEWMGRIIPIVGIVNYAEKFQGRVTITADKSMSTAYMELSSLRSEDTAVYYCARNWADAFDIWGQGTMVTVSS VL: DIQLTQSPSSLSASVGDRVTITCRASQGISSALAWYQQKPGKAPKLLIYDASRLESGVPSRFSGSGSGTDFTLTISSLQPEDFTTYYCQQFNSSYTFGQGTKLEIKR | 500 pM | 300 pM
7 | 280-31-01(mut) (antibody, human IgG1, kappa, V domains shown, Fully human monoclonal antibody; also called No 5) VH: QVQLVQSGAEVKKPGSSVKVSCKASGGTFSDYAISWVRQAPGQGLEWMGRIIPILGVADYAQKFQGRVTITADKSTRTAYMELSSLRSEDTAVYYCARNWADAFDIWGQGTMVTVSS VL: DIQLTQSPSSLSASVGDRVTITCRASQGISSVLAWYQQKPGKAPKLLIYDASSLESGVPSRFSGSGSGTDFTLTISSLQPEDFATYYCQQFDSSITFGQGTKLEIKR | 500 pM | 
8 | 283-14-01 (antibody, human IgG1, kappa, V domains shown, Fully human monoclonal antibody; also called No 14; Clone ID# 283-14-01) VH: QVQLVQSGAEVKKPGSSVKVSCKASGGTFSSYAISWVRQAPGQGLEWMGRIIPILGIANYAQKFQGRVTITADKSTYTAYMELSSLRSEDTAVYYCAREGGVDWYFDLWGRGTLVTVSS VL: DIQLTQSPSSLSASVGDRVTITCRASQGISSALAWYQQKPGKAPKFMIYDASSLESGVPSRFSGSGSGTDFTLTISSLQPEDFATYYCQQFNSSITFGQGTKLEIKR | 2300 pM | 
9 | 283-03-03 (antibody, human IgG1, kappa, V domains shown, Fully human monoclonal antibody; also called No 10; Clone ID# 283-03-03) VH: QVELVQSGAEVKKPGSSVKVSCKASGGTFSSYAISWVRQAPGQGLEWMGRIIPILDMANYAQKFQGRVTITADKSTYTAYMELSSLRSEDTAVYYCAREGGVDWYFDLWGRGTLVTVSS VL: DIQLTQSPSSLSASVGDRVTITCRASQGISSALAWYQQKPGKAPKFMIYDASSLESGVPSRFSGSGSGTDFTLTISSLQPEDFATYYCQQFNSSITFGQGTKLEIKR | 1900 pM | 
10 | 283-05-01 (antibody, human IgG1, kappa, V domains shown, Fully human monoclonal antibody; also called No 11; Clone ID# 283-05-01) VH: QVELVQSGAEVKKPGSSVKVSCKASEDTFSSYAISWVRQAPGQGLEWMGRIIPIIGIVNYAQKFQGRVTITADKSTYTAYMELSSLRSEDTAVYYCAREGGVDWYFDLWGRGTLVTVSS VL: DIQLTQSPSSLSASVGDRVTITCRASQGISSALAWYQQKPGKAPKFMIYDASSLESGVPSRFSGSGSGTDFTLTISSLQPEDFATYYCQQFNSSITFGQGTKLEIKR | 1100 pM | 
11 | 283-11-03 (antibody, human IgG1, kappa, V domains shown, Fully human monoclonal antibody; also called No 13; Clone ID# 283-11-03) VH: QVQLVQSGAEVKKPGSSMKVSCKASEDTFSSYAISWVRQAPGQGLEWMGRIIPIIGIVNYAQKFQGRVTITADKSTCTAYMELTSLRSEDTAVYYCAREGGVDWYFDLWGRGTLVTVSS VL: DIQLTQSPSSLSASVGDRVTITCRASQGISSALAWYQQKPGKAPKFMIYDASSLESGVPSRFSGSGSGTDFTLTISSLQPEDFATYYCQQFNSSITFGQGTKLEIKR | 600 pM | 
12 | 280-21-09 (antibody, human IgG1, kappa, V domains shown, Fully human monoclonal antibody; also called No 2; Clone ID# 280-21-09) VH: QVQLVQSGAEVKKPGSSVKVSCKASGDTFSSYAISWVRQAPGQGLEWMGRIIPIINIASYAQNFQGRVTITADKSTNTAYMELSSLRSEDTAVYYCARNWADAFDIWGQGTMVTVSS VL: DIQLTQSPSSLSASVGDRVTITCRASQGISSALAWYQQKPGKAPKLLIYDASSLESGVPSRFSGSGSGTDFTLTISSLQPEDFATYYCQQFNSSITFGQGTKLEIKR | 300 pM | 
13 | 280-31-01 (antibody, human IgG1, kappa, V domains shown, Fully human monoclonal antibody; also called No 4; Clone ID# 280-31-01) VH: QVQLVQSGAEVKKPGSSVKVSCKASGGTFSDYAISWVRQAPGQGLEWMGRIIPILGVADYAQKFQGRVTITADKSTRTAYMELSSLRSEDTAVYYCARNWADAFDIWGQGTMVTVSS VL: DIQLTQSPSSLSASVGDRVTITCRASQGISSVLAWYQQKPGKAPKLLIYDASSLESGVPSRFSGSGSGTDFTLTISSLQPEDFATYYCQQFNSSITFGQGTKLEIKR | 300 pM | 
14 | 280-29-12 (antibody, human IgG1, kappa, V domains shown, Fully human monoclonal antibody; also called No 3; Clone ID# 280-29-12) VH: QVQLVQSGTEVKKPGSSVKVSCKVSGDTFSSYAISWVRQAPGQGLEWMGRIIPIIGIANYAQKFQGRVTITADKSTSTAYMELSSLRSEDTAVYYCARHWLDAFDIWGQGTMVTVSS VL: DIQLTQSPSSLSASVGDRVTITCRASQGISSALAWSQQKPGKAPKLLIYDASSLESGVPSRFSGSGSGTDFTLTISSLQPEDFATYYCQQFNSSITFGQGTKLEIKR | 600 pM | 
